Data from paper PMC4728560 (Scientific Reports, 2016).
Entries after “also recorded” stand apart in the source; their conditions may differ.

Key:
Bcl-xL [1] = target: T1, Bcl-xL (Homo sapiens, UniProt Q07817, DEL27-82); assay: Heterocomplex formation with Bcl-xL (native MS, SEC-MALS, gel filtration); format: binding; conditions: native MS: Bcl-xL(Δ27-81ΔCT), equimolar 100 μM, 30 °C, checked at 5 μM (for TCTP-R21A)
T1 construct: one containing the fragment 1-26, and the other the fragment 81-209; 6His (N, cleaved yes); made in house; host or cells: Escherichia coli BL21 (DE3) pRARE2
Protocol: When not specified, proteins tested for binding experiments were mixed at 100 μM, dialyzed against 10 mM CHES pH 9, 50 mM NaCl, 1 mM DTT or TCEP, depending on the analysis, and heated overnight at 30 °C.
For binding experiments, 100 to 200PL of protein mixture were loaded on a size exclusion chromatography (S200, GE Healthcare) column, while elution profiles were measured by UV absorption at 280 nm.
SEC-MALS experiments were performed on a multi-angle light scattering detector (miniDAWN TREOS, Wyatt Technologies) coupled in-line with SEC and an interferometric refractometer (Optilab T-rEX, Wyatt Technologies). See Supplementary Information for full details.
Prior to any mass spectrometry experiment, protein buffer was exchanged twice against a 50 mM ammonium acetate (NH4Ac) solution at pH 9.0 using microcentrifuge gel filtration columns (Zeba 0.5 ml, Thermo Scientific, Rockford, IL). Protein concentration was determined spectrophotometrically. […]
Supplementary Table 1. Measured molecular weights in denaturing conditions Sample Theoretical molecular Measured molecular Associated mass (Da) mass (Da) species […]
Gel filtration. For binding experiments, 100 to 200PL of protein mixture were loaded on a size exclusion chromatography (S200, GE Healthcare) column, while elution profiles were measured by UV absorption at 280nm. […]

[2] = system: Bcl-xL inhibition of cBid/Bax; assay: In vitro reconstitution liposome permeabilization, cBid/Bax with Bcl-xL; format: biochemical; conditions: ANTS/DPX liposomes, 100 nM Bax, 20 nM cBid, pre-incubation pH 9, 45 min, 37 °C, 5 h, pH 7
Source text: (§1) This purified assay system measures direct interactions in which full-length untagged Bcl-xL inhibits permeabilization by binding full-length caspase 8 cleaved Bid (cBid) and/or full-length untagged Bax, thereby preventing Bax oligomerization in membranes. […] In these assays liposome permeabilization by activated Bax releases the entrapped fluorophore/quencher pair 8-aminonaphthalene-1,3,6-trisulfonic acid (ANTS)/p-xylene-bispyridinium (DPX), resulting in a measurable increase of fluorescence.
(§2) (A–E) in vitro reconstitution assay on liposome permeabilization. […] The treated Bcl-xL was then added to reactions containing ANTS-DPX liposomes, 100 nM Bax and 20 nM of either cBid (A,B) or cBidmt1(C,D) at pH 7. Liposome permeabilization was quantified by fluorescence after 5h incubation at 37 °C where 100% release was defined as the fluorescence change due to lipid solubilization with 1% Triton X-100. […] Error bars, std. dev. n = 3. […] Cyto c extra-mito: in the supernatant, analysed by Western blot. […]
(§3) Figure 10 A,B) or cBid mt1 (Supplementary Figure 10 C,D) at pH 7 to quantify the activity of Bcl-xL inhibition of liposome permeablization. […]
(§4) then added to reactions containing ANTS-DPX liposomes, 100nM Bax and 20nM of either c Bid (A, C) or cBid mt1(B, D) at pH 7 and liposome permeabilization was quantified by fluorescence […]

Bcl-xL [3] = assay: In cellulo BRET between Luciferase-fused TCTP and YFP-fused Bcl-xL; format: cell-based; conditions: MCF-7 cells; donor Luciferase-fused TCTP, acceptor YFP-fused Bcl-xL
Source text: See Supplementary Information for full details.
Twenty-four hours later, cells
Protein expression and purification

[4] = system: Bcl-xL inhibition of cBidmt1/Bax; assay: In vitro reconstitution liposome permeabilization, cBidmt1/Bax with Bcl-xL; format: biochemical; conditions: ANTS/DPX liposomes, 100 nM Bax, 20 nM cBidmt1, pre-incubation pH 9, 45 min, 37 °C, 5 h, pH 7
Source text: as §1, §2, §3, §4

[5] = system: Bax mediated cytochrome c release, Bcl-xL; assay: Cytochrome c release from purified mitochondria by tBid and Bax in the presence of Bcl-xL; format: biochemical; conditions: mouse liver mitochondria; 5 nM tBid, 50 nM Bax, 300 nM Bcl-xL; 15 min, 30 °C; Western blot
Protocol: as §2, with “3. To compare between the TCTP treated groups and the Control group statistically, two-way ANOVA test was performed for (A–D) and one-way ANOVA test was performed for (E). […] Colored asterisks above each data point indicate the statistical significance (*p < 0.05; **p < 0.01, no asterisks if p ≥ 0.05). A complete statistical analysis is provided in Supplementary Table 2–4.” for “3.”
to highlight the pre-incubation), pH 9, 30 C° before being added to the mitochondria at their final concentrations. […] Cytochrome c was detected in the mitochondrial fraction (Cyto c intra-mito) or in the supernatant (Cyto c extra-mito) by Western blot analysis. […]
Cytochrome c release assay. […] Mitochondrial pellets and the corresponding supernatant fractions were subjected to SDS-polyacrylamide gel electrophoresis and analyzed by Western blotting for cytochrome c.

T1 sequence (Q07817 with tags, fused parts or gaps DEL27-82): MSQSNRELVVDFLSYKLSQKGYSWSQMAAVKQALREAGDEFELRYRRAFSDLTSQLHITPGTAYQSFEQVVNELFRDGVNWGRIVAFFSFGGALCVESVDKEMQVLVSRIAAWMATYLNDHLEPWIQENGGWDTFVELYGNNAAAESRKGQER

- BRET signals with Bcl-xL (Bcl-xL [3]): lack of binding
B1: TCTP R21A: full-length TCTP protein bearing the mutation R21A (protein)
chain: MIIYRDLISHDEMFSDIYKIAEIADGLCLEVEGKMVSRTEGNIDDSLIGGNASAEGPEGEGTESTVITGVDIVMNHHLQETSFTKEAYKKYIKDYMKSIKGKLEEQRPERVKPFMTGAAEQIKHILANFKNYQFFIGENMNPDGMVALLDYREDGVTPYMIFFKDGLEMEKC
- complex formation with Bcl-xL (Bcl-xL [1]): no peak; also recorded: no complex formation
- effect on Bcl-xL inhibition of cBid/Bax-mediated liposome permeabilization [2]: no effect on Bcl-xL activity
- effect on Bcl-xL inhibition of cBidmt1/Bax-mediated liposome permeabilization [4]: no effect on Bcl-xL activity
- potentiation of Bcl-xL (cytochrome c release) [5]: do not potentiate Bcl-xL
